# In patent US6716858B1, “Methods for inhibiting diabetic complications” (Kansas University Medical Center, priority 1995, dated 2004):
# B1: RSA: purified rat serum albumin, unmodified (protein, UniProt P02770 25-608, looked up)
# Albumin: EAHKSEIAHRFKDLGEQHFKGLVLIAFSQYLQKCPYEEHIKLVQEVTDFAKTCVADENAENCDKSIHTLFGDKLCAIPKLRDNYGELADCCAKQEPERNECFLQHKDDNPNLPPFQRPEAEAMCTSFQENPTSFLGHYLHEVARRHPYFYAPELLYYAEKYNEVLTQCCTESDKAACLTPKLDAVKEKALVAAVRQRMKCSSMQRFGERAFKAWAVARMSQRFPNAEFAEITKLATDVTKINKECCHGDLLECADDRAELAKYMCENQATISSKLQACCDKPVLQKSQCLAEIEHDNIPADLPSIAADFVEDKEVCKNYAEAKDVFLGTFLYEYSRRHPDYSVSLLLRLAKKYEATLEKCCAEGDPPACYGTVLAEFQPLVEEPKNLVKTNCELYEKLGEYGFQNAVLVRYTQKAPQVSTPTLVEAARNLGRVGTKCCTLPEAQRLPCVEDYLSAILNRLCVLHEKTPVSEKVTKCCSGSLVERRPCFSALTVDETYVPKEFKAETFTFHSDICTLPDKEKQIKKQTALAELVKHKPKATEDQLKTVMGDFAQFVDKCCKAADKDNCFATEGPNLVARSKEALA
# B2: NaBH4-reduced: Amadori-RSA reduced with NaBH4 (protein, UniProt P02770 25-608, looked up)
# Albumin: B1 Albumin
# modifications: ribose-glycated, NaBH4-reduced
# How the values were obtained:
# [1] = test system: post-Amadori AGE formation, RNase Amadori intermediate; test: Interrupted (post-Amadori) ribose glycation assay, RNase; type: biochemical, bovine; details: up to 50 mM; protein not stated (FIG. 21)
# Procedure: ELISA detection of AGE products. The general method of Engvall (1981, Methods Enzymol. 70:419-439) was used to perform the ELISA. Typically, glycated protein samples were diluted to approximately 1.5 ug/ml in 0.1 M sodium carbonate buffer of pH 9.5 to 9.7. The protein was coated overnight at room temperature onto 96-well polystyrene plates by pippetting 200 ul of the protein solution in each well (0.3 ug/well). After coating, the protein was washed from the wells with a saline solution containing 0.05% Tween-20. The wells were then blocked with 200 ul of 1% casein in carbonate buffer for 2 h at 37° C. followed by washing. Rabbit anti-AGE antibodies were diluted at a titer of about 1:350 in incubation buffer, and incubated for 1 h at 37° C., followed by washing. In order to minimize background readings, antibodies R479 used to detect glycated RNase were raised against glycated BSA, and antibodies R618 used to detect glycated BSA and glycated Hb were raised against glycated RNase. An alkaline phosphatase-conjugated antibody to rabbit IgG was then added as the secondary antibody at a titer of 1:2000 or 1:2500 (depending on lot) and incubated for 1 h at 37° C., followed by washing. The p-nitrophenylphosphate substrate solution was then added (200 ul/well) to the plates, with the absorbance of the released p-nitrophenolate being monitored at 410 nm with a Dynatech MR 4000 microplate reader.
# Glycation Modifications Modification with ribose or glucose was generally done at 37° C. in 0.4 M phosphate buffer of pH 7.5 containing 0.02% sodium azide. The high buffer concentration was always used with 0.5 M ribose modifications. The solutions were kept in capped tubes and opened only to remove timed aliquots that were immediately frozen for later carrying out the various analyses. “Interrupted glycation” experiments were carried out by first incubating protein with the ribose at 37° C. for 8 or 24 h, followed by immediate and extensive dialysis against frequent cold buffer changes at 4° C. The samples were then reincubated by quickly warming to 37° C. in the absence of external ribose. Aliquots were taken and frozen at various intervals for later analysis. Due to the low molecular weight of RNase, protein concentrations were remeasured after dialysis even when low molecular weight cut-off dialysis tubing was used. An alternative procedure was also devised (see below) in which interruption was achieved by simple 100-fold dilution from reaction mixtures containing 0.5 M ribose. Protein concentrations were estimated from UV spectra. The difference in molar extinction between the peak (278 nm) and trough (250 nm) was used for RNase concentration determinations in order to compensate for the general increase in UV absorbance that accompanies glycation. Time-dependent UV-difference spectral studies were carried out to characterize the glycation contributions of the UV spectrum. […]
# Glycation was first carried out by incubating protein (10 mg/ml) with 0.5 M ribose at 37° C. in 0.4 M phosphate buffer at pH 7.5 containing 0.2% sodium azide for 24 h in the absence of inhibitors. Glycation was then interrupted to remove excess and reversibly bound (Schiff base) sugar by extensive dialysis against frequent cold buffer changes at 4° C.
# [2] = test system: Sprague-Dawley rats, glomerular changes; type: in vivo, rat; details: for Alcian Blue pH 1.0, scoring of glomerular staining (sulfated glycosaminoglycans) / Alcian Blue pH 2.5, scoring of glomerular staining (acidic glycosaminoglycans) / HS core protein (Ab BL-31), scoring of glomerular staining: 6 weeks, average with standard error; for Alcian Blue pH 1.0, scoring of glomerular staining (sulfated glycosaminoglycans) / Alcian Blue pH 2.5, scoring of glomerular staining (acidic glycosaminoglycans) / HS core protein (Ab BL-31), scoring of glomerular staining / Creat C-2wk / Creat C-6wk: n = 4; for Creat C-2wk: creatinine clearance at 2 weeks; for Creat C-6wk: creatinine clearance at 6 weeks; for average glomerular volume / decrease in heparan sulfate (HS) side-chain staining relative to controls / glomerular albumin deposition / cross-linking relative to controls / immunofluorescent glomerular staining for Heparan Sulfate Proteoglycan Core protein / immunofluorescent glomerular staining for Heparan Sulfate Proteoglycan side-chain / immunofluorescent glomerular staining for RSA / increase in glomerular volume (GV) relative to controls / Alcian blue pH 1.0 glomerular staining versus controls / increase in acidic glycosaminoglycans, Alcian Blue pH 2.5 staining: rat, in vivo
# Procedure: Male Sprague-Dawley rats (Sasco, 100 g) were used. After a 1 week adaptation period, rats were placed in metabolic cages to obtain a 24 hour urine specimen for 2 days before administration of injections. Rats were then divided into experimental and control groups and given tail vein injections with either saline, unmodified RSA (50 mg/kg), Amadori-RSA (50 mg/kg), NaBH4-reduced Amadori-RSA (50 mg/kg), or AGE-RSA (50 mg/kg).
# Rats injected with Amadori-RSA and AGE-RSA were then either left untreated, or further treated by the administration of either aminoguanidine (AG; 25 mg/kg), pyridoxamine (PM; 25 mg/kg), or a combination of AG and PM (10 mg/kg each) through the drinking water. Body weight and water intake of the rats were monitored weekly in order to adjust dosages. At the conclusion of the experimental study the rats were placed in metabolic cages to obtain 24 hour urine specimen for 2 days prior to sacrificing the animals.
# After perfusion with saline, kidney sections were fixed in ice-cold 10% neutral buffered formalin. Paraffin-embedded tissue sections from all rat groups (n=4 per group) were processed for staining with Harris' alum hematoxylin and eosin (H&E), perodic acid/Schiff reagent (PAS), and alcian blue (pH 1.0 and pH 2.5) stains for histological examination. The alcian blue sections were scored by two investigators in a blinded fashion.
# Parrafin-embedded sections were deparaffinized and then blocked with 10% goat serum in PBS for 30 min at room temperature. […] The sections were then rinsed for 30 min with PBS in the dark, mounted in aqueous mounting media for immunocytochemistry (Biomeda), and cover slipped. Sections were scored in a blinded fashion. Kidney sections were evaluated by the number and intensity of glomerular staining in 5 regions around the periphery of the kidney. Scores were normalized for the immunofluorescent score per 100 glomeruli with a scoring system of 0-3.
# All animals studies were carried out in conformance with institutional guidelines for animal research protocols. Male Sprague-Dawley 100 g rats (Sasco Co., Omaha Nebr.) were used in these studies. After a 1 week adaptation period, rats were placed in metabolic cages for 2 days to get two 24 hour urine specimens before starting treatment. Rats were then given daily single tail vein injections for 6 weeks according to the following treatment groups: saline, unmodified RSA (50 mg/kg), Amadori-RSA (50 mg/kg), NaBH4-reduced Amadori-RSA (50 mg/kg), and AGE-RSA (50 mg/kg). Groups of rats injected with Amadori-RSA or AGE-RSA were also administered aminoguanidine (25 mg/kg/day), pyridoxamine (25 mg/kg/day), a combination of the two (10 mg/kg/day each), or with nothing added to the drinking water. Body weight and water intake of the rat were monitored weekly in order to adjust dosages. At the conclusion of the study, the rats were placed in metabolic cages for two days to get two 24 hour urine specimens before sacrificing the animals.
# Total protein in urine was determined by Bio-Rad assay. Albumin in urine was determined by competitive ELISA using rabbit anti-rat serum albumin (Cappell) as primary antibody (1:2000) and goat anti-rabbit IgG (Sigma) as a secondary antibody (1:2000). Urine was tested with Multistix 8 SG (Miles) for glucose, ketone, specific gravity, blood, pH, protein, nitrite and leukocytes. Creatinine measurements were performed with a Beckman creatinine analyzer II. Intracardiac blood samples were collected before termination and were used in the determination of creatinine clearance, blood glucose (glucose oxidase, Sigma), fructosamine (nitroblue tetrazolium, Sigma), and glycated Hb (Glycotest II analytical boronate columns, Pierce).
# After perfusion with saline, kidney sections were fixed in ice-cold 10% neutral buffered formalin. […]
Molecule,inhibition of post-Amadori AGE formation [1],"Alcian Blue pH 1.0, scoring of glomerular staining (sulfated glycosaminoglycans) [2]","Alcian Blue pH 2.5, scoring of glomerular staining (acidic glycosaminoglycans) [2]","HS core protein (Ab BL-31), scoring of glomerular staining [2]",Creat C-2wk [2],Creat C-6wk [2],average glomerular volume [2],decrease in heparan sulfate (HS) side-chain staining relative to controls [2] [%],glomerular albumin deposition / cross-linking relative to controls [2],immunofluorescent glomerular staining for Heparan Sulfate Proteoglycan Core protein [2],immunofluorescent glomerular staining for Heparan Sulfate Proteoglycan side-chain [2],immunofluorescent glomerular staining for RSA [2],increase in glomerular volume (GV) relative to controls [2] [%],Alcian blue pH 1.0 glomerular staining versus controls [2],"increase in acidic glycosaminoglycans, Alcian Blue pH 2.5 staining [2]"
"CC(=O)N[C@@H](CCCCN)C(=O)O [N^60 -acetyl-L-lysine, N^α-acetyl-L-lysine]",failed to exhibit any significant inhibition of AGE formation,–,–,–,–,–,–,–,–,–,–,–,–,–,–
AGE-RSA: Amadori-RSA re-incubated in the absence of sugar for 2-3 days at 37° C.,–,1.25 ± 0.14,2.44± 0.21,238 ± 10,0.56 ± 0.04 ml/(min*100g),0.86 ± 0.11 ml/(min*100g),significant increase in average glomeruli volume,50,four-fold increase,slightly reduced staining,highly reduced staining,elevated staining,30,significantly decreased,50-60%
"Amadori-RSA: rat serum albumin incubated with 0.5 M ribose for 12 hours, then dialyzed; negative for antigenic AGEs",–,2.00 ± 0.41,2.12 ± 0.12,235 ± 12,1.02 ± 0.10 ml/(min*100g),0.60 ± 0.10 ml/(min*100g),significant increase in average glomeruli volume,25,not different from the controls,slightly reduced staining,highly reduced staining,elevated staining,35,no significant difference,50-60%
B1,–,2.75 ± 0.14,1.38 ± 0.24,226 ± 10,0.86 ± 0.16 ml/(min*100g),0.70 ± 0.02 ml/(min*100g),–,–,–,–,–,–,–,–,–
B2,–,–,1.81 ± 0.47,203 ± 14,–,0.86 ± 0.07 ml/(min*100g),–,–,–,–,–,–,–,–,–
